The results in this text go back to paper PMC12288907 (JCI Insight, 2025).

Residue numbers refer to the chain shown, from its start.

Common to all, as to experiment: ELISA
Details in all cases: both partners purified

The target of test [1] is recombinant soluble trimeric H15 HA of A/shearwater/Western Australia/2576/1979 H15N9 (wtWA79 H15) (Influenza A virus A/wedge-tailed …, UniProt Q20ND8, strain).
Test [2] addresses recombinant soluble trimeric H7 HA of A/Netherlands/219/2003 H7N7 (NL03 H7) (Influenza A virus …, UniProt Q6VMK1, strain).
In test [3] the target is recombinant soluble trimeric H15 HA of A/shearwater/Western Australia/2576/1979 H15N9 (Influenza A virus A/wedge-tailed …, UniProt Q20ND8, strain).
The target of test [4] is recombinant soluble trimeric H7 HA of A/Netherlands/219/2003 H7N7 (Influenza A virus …, UniProt Q6VMK1, strain).

B1: recombinant H7-235 IgG1 (rH7-235 IgG1) (antibody, V domains shown)
VH: QVQLVESGGGVVQPGESLRLSCAASGFAFRTYGMHWVRQAPGKGLEWVGVIWYDGSNKYYGDSVKGRFTISRDNSQNTLYLQMNSLRAEDTAVYYCARNGERWRVEDYYYGMDVWGQGTLVTVSS
VL: EIVMTQSPLSLPVTPGEPASISCRSSQSLLHSNAHNYLDWYLQKPGQSPQLLIYLGSNRASGVPDRFSGSGSGTDFTLKISRVEAEDVGIYYCMQALQTPITFGQGTRLEIK
notes: IgG1; also called rH7-235 mAb; mAb H7-235; copies: 2 + 2
Take B1: the binding result was “no binding” in test [1] and “binds” in test [2].

B2: rH7-235 IgG1 (recombinant human monoclonal antibody H7-235) (antibody, V domains shown)
VH: B1 VH
VL: B1 VL
notes: also called mAb H7-235; source: Expi293F, transient transfection, purified (MabSelect Sure)
Consider B2, for which, in test [3], the binding result is recorded as “no binding (tested: >10,000 ng/mL)”.

B3: rH7-235rev IgG1 (germline revertant form of rH7-235 IgG) (antibody, V domains shown)
VH: B1 VH with E16R, A28T, R30S, T31S, G49A, G61A, Q76K
VL: not shown
Take B3: the binding result in test [3] and in test [4] was “no binding (tested: >10,000 ng/mL)” each time.
